In experiment [1] the test system is ADAM10. Nature of the experiment: Ionomycin-induced ADAM10-mediated IL-6R ectodomain shedding in transiently transfected HEK293 cells, sIL-6R ELISA. The class given is cell-based, human. The note with it: for sIL-6R shedding, Figure S4E, mean / sIL-6R shedding, Figure S4B, mean: normalised to PV Iono = 100; for sIL-6R shedding, Figure S4G, mean: normalised to PVQD Iono = 100. An excerpt:
Analysis of IL-6R ectodomain shedding in transiently transfected HEK293 cells or stably transduced Ba/F3-gp130 cell lines by ADAM10 and ADAM17 has been described elsewhere. Analysis of IL-6R proteolysis by CG has been described previously.
The sandwich ELISA, which detects sIL-6R as well as ds-sIL-6R (4-11/Baf227 antibodies) and can be used to quantify total sIL-6R serum levels, was described previously. To specifically detect ds-sIL-6R (either recombinant or in human serum), a similar approach was used (ds6R/Baf227). Both sandwich ELISAs were performed with streptavidin-horseradish peroxidase (R&D Systems, Minneapolis, Minnesota, US) and the peroxidase substrate BM blue POD (Roche, Mannheim, Germany). The enzymatic reaction was stopped by addition of 1.8 M sulfuric acid, and the absorbance read at 450 nm on a Tecan rainbow reader (Tecan, Crailsheim, Germany).
Supplementary file pbio.2000080.s004.tif: S4 Fig Mutation of Val-356 is sufficient to block ADAM10-mediated proteolysis of the IL-6R and the Asp358Ala variant. (A) HEK293 cells were transiently transfected with Expression plasmids encoding the wildtype IL-6R (PV) or the double mutants (IE, DG) as indicated. Cells were either treated with 1 μM ionomycin for 1 h or DMSO as vehicle control. sIL-6R was precipitated from the supernatant with concanavalin A-covered Sepharose beads, and cells were lysed. Both were analyzed via Western blot, and β-actin served as loading control. One out of three experiments with similar outcome is shown. (B, C) The experiment was performed as described under (A), but sIL-6R generation was analyzed via ELISA. In (B), the amount of sIL-6R generated after ionomycin-stimulation of the wildtype IL-6R (PV) was set to 100%, and all other values were calculated accordingly. In (C), the amount of sIL-6R without stimulation was considered as constitutive shedding and set to 1 and the increase of sIL-6R was calculated. Data shown are the mean ± SD from at least three independent experiments (*p<0.05, ns = no significant difference). (D-F) HEK293 cells were transiently transfected with expression plasmids encoding the wildtype IL-6R (PV) or the single mutants (DV, IV, PE, PG) as indicated. The experiments were performed as described in (A) to (C). (G) ADAM10-mediated proteolysis of the IL-6R variants depicted in Fig 4I was analyzed as described in (B). (H) Equal numbers of Ba/F3-gp130-IL-6R_DG cells were incubated for 48 h with increasing amounts (0–100 ng/ml) of either IL-6 or Hyper-IL-6. One representative experiment out of three performed is shown (mean ± SD, biological triplicates). (TIF) Click here for additional data file.

Experiment [2] relates to Ba/F3-gp130-hIL-6R and Ba/F3-gp130-hIL-6R-4N cells. Put plainly: IL-6R internalization assay (cell-surface turnover, flow cytometry). The class given is cell-based. Conditions: for IL-6R remaining at the cell surface (0 min = 100), mean: mean of 3. Here is the method:
Fig 6 N- and O-linked glycosylation are dispensable for intracellular transport and signaling of the IL-6R. (A–G) Equal numbers of Ba/F3-gp130 cells were incubated for 48 h with increasing amounts (0–100 ng/ml) of either IL-6 or Hyper-IL-6. The stably transduced IL-6R variant is indicated above the diagram. One representative experiment out of three performed is shown (mean ± SD, biological triplicates). (H) Equal numbers of Ba/F3-gp130-hIL-6R and Ba/F3-gp130-hIL-6R-4N cells were labeled with an anti-IL-6R antibody and incubated at 37°C for the indicated time periods. The remaining cell-surface expression of the IL-6R was analyzed via flow cytometry. Data shown are the mean ± SD from three independent experiments.
In order to analyze internalization of the IL-6R, 1 x 10^7 cells were washed in PBS, seeded onto a 10 cm dish in serum-free DMEM, and starved for 2 h at 37°C. Afterwards, cells were again washed with PBS, and the IL-6R was labeled with the 4–11 antibody diluted in FACS buffer (1% BSA in PBS). After 1 h incubation on ice, cells were washed and resuspended in 10 ml serum-free DMEM, seeded onto a 10 cm dish, and shifted back to 37°C. At the time points indicated (0–180 min), 1 ml of the cell suspension was taken from the dish, transferred into a 1.5 ml reaction tube, and kept on ice to inhibit further internalization of the IL-6R. After obtaining the last sample, the cells were washed in cold FACS buffer, and the remaining IL-6R on the cell surface was stained with an APC-conjugated anti-mouse mAb. The cells were washed again and analyzed by flow cytometry using the BD Biosciences FACS Canto II (Becton-Dickinson, Heidelberg, Germany).

B1: PV: wild-type human IL-6R, cleavage site Pro-355/Val-356 (protein)
chain: LAPRRCPAQEVARGVLTSLPGDSVTLTCPGVEPEDNATVHWVLRKPAAGSHPSRWAGMGRRLLLRSVQLHDSGNYSCYRAGRPAGTVHLLVDVPPEEPQLSCFRKSPLSNVVCEWGPRSTPSLTTKAVLLVRKFQNSPAEDFQEPCQYSQESQKFSCQLAVPEGDSSFYIVSMCVASSVGSKFSKTQTFQGCGILQPDPPANITVTAVARNPRWLSVTWQDPHSWNSSFYRLRFELRYRAERSKTFTTWMVKDLQHHCVIHDAWSGLRHVVQLRAQEEFGQGEWSEWSPEAMGTPWTESRSPPAENEVSTPMQALTTNKDDDNILFRDSANATSLPVQDSSSVPLPTFLVAGGSLAFGTLLCIAIVLRFKKTWKLRALKEGKTSMHPPYSLGQLVPERPRPTPVLVPLISPPVSPSSLGSDNTSSHNRPDARDPRSPYDISNTDYFFPR
modifications: N-linked glycans at Asn-55, Asn-93, Asn-221, Asn-245 and Asn-350, O-linked glycan at Thr-352 (mapped on sIL-6R shed from transfected HEK293 cells)
Consider B1, for which the “ratio of sIL-6R Iono / DMSO, Figure S4F, mean” value in experiment [1] (mean of n = 3) was determined as 3.48. The “ratio of sIL-6R Iono / DMSO, Figure S4C, mean” value in experiment [1] (mean of replicates) came to 2.623. Further, the “sIL-6R shedding, Figure S4E, mean” value in experiment [1] (treatment DMSO, mean of n = 3) is 35.7033; in experiment [1] (treatment Iono, mean of n = 3), 100. Further, the “sIL-6R shedding, Figure S4B, mean” value in experiment [1] (treatment DMSO, mean of replicates) came out at 40.5833; in experiment [1] (treatment Iono, mean of replicates), 100. The “sIL-6R shedding, Figure S4G, mean” value in experiment [1] (treatment DMSO, mean of n = 3) came to 48.1333; in experiment [1] (treatment Iono, mean of n = 3) it was 100. Also, the “IL-6R remaining at the cell surface (0 min = 100), mean” value (shortened to “IL-6R remaining at the cell surface”) was 79.6667 in experiment [2] (block 1 (wt), 15 min); 59 in experiment [2] (block 1 (wt), 30 min); 46 in experiment [2] (block 1 (wt), 60 min); 35 in experiment [2] (block 1 (wt), 90 min); 23.6667 in experiment [2] (block 1 (wt), 120 min); 16.6667 in experiment [2] (block 1 (wt), 150 min). Also, the “IL-6R remaining at the cell surface” value in experiment [2] (block 1 (wt), 180 min) is on record as 13.3333; in experiment [2] (block 2, 15 min) it was 85.6667; in experiment [2] (block 2, 30 min), 65; in experiment [2] (block 2, 60 min), 49.3333; in experiment [2] (block 2, 90 min) it was 45; in experiment [2] (block 2, 120 min), 35.6667. Moreover, the “IL-6R remaining at the cell surface” value is recorded as 27.6667 in experiment [2] (block 2, 150 min) and 24.3333 in experiment [2] (block 2, 180 min). Also, the “t1/2 of IL-6R at the cell surface” value in experiment [2] (pulse-chase with 4-11 antibody, 37°C, flow cytometry, mean ± SD, n = 3) amounted to 44.1 ± 8.1 min.

For the origin of these results see PMC5218472 (PLoS Biology, 2017).
